According to patent US10344068B2, “Natriuretic polypeptides” (priority 2011, dated 2019):
Ends that are not written are not given here.

How the values were obtained:
Assay type in all cases: cell-based
[1] = tested on: Human cardiac fibroblasts; experiment: cGMP production in human cardiac fibroblasts (competitive RIA cGMP kit); conditions: human cardiac fibroblasts (CFs); 10^-6 M, 10^-8 M or 10^-10 M of NP or cANG for 10 minutes
Experimental: cANG was custom-synthesized to have the sequence set forth in FIG. 4 and confirmed by high performance liquid chromatography and mass spectroscopy to have a molecular weight of 3080.6 Da. Human cardiac fibroblasts (CFs; ScienCell, San Diego, Calif.) were cultured in the manufacturer's fibroblast media (ScienCell, San Diego, Calif.) supplemented with fibroblast growth serum (FGS), fetal bovine serum (FBS), and Pen/Strep. Cells were treated at 80-90% confluency. Only cell passages 1 through 4 were used for experiments. To perform a cyclic GMP assay, the cells were treated as described previously (Huntley et al., J. Cell. Physiol., 209(3):943-9 (2006)). Briefly, cells were incubated in Hank's balanced salt solution (Invitrogen, Carlsbad, Calif.) containing 20 mmol/L N-[2-hydroxyethyl]piperazine-N′[2-ethanesulfonic acid], 0.1% bovine serum albumin, and 0.5 mmol/L 3-isobutyl-1-methylzanthine (Sigma, St. Louis, Mo.). Treated cells received 10^−6 M, 10^−8M, or 10^−10 M of NP or cANG for 10 minutes. Cells were lysed in 6% TCA and sonicated for 10 minutes. The samples were ether extracted four times in four volumes of ether, dried, and reconstituted in […] of cGMP assay buffer.
The samples were assayed using a competitive RIA cGMP kit (Perkin-Elmer, Boston, Mass.). Briefly, samples and standards were incubated with […] anti-human cGMP polyclonal antibody and I^125-antigen for 18 hours. Cyclic GMP assay buffer was added to the samples, and they were centrifuged for 20 minutes at 2500 rpm. The free fraction was aspirated off, and the bound fraction was counted and concentrations determined. Samples were corrected for dilution factors and protein concentration, and values were expressed as pmoles/mL.

NPR-A (GC-A) = biological target: T1, NPR-A (GC-A) (Homo sapiens, UniProt P16066); experiment: cGMP production in HEK 293 cells stably transfected to express NPR-A (GC-A); conditions: NPR-A+ HEK 293 cells; 10^-10 M, 10^-8 M or 10^-6 M for 10 minutes
T1 construct: expressed in transfected cells; host or cells: HEK 293
T1 sequence (P16066 33-1061): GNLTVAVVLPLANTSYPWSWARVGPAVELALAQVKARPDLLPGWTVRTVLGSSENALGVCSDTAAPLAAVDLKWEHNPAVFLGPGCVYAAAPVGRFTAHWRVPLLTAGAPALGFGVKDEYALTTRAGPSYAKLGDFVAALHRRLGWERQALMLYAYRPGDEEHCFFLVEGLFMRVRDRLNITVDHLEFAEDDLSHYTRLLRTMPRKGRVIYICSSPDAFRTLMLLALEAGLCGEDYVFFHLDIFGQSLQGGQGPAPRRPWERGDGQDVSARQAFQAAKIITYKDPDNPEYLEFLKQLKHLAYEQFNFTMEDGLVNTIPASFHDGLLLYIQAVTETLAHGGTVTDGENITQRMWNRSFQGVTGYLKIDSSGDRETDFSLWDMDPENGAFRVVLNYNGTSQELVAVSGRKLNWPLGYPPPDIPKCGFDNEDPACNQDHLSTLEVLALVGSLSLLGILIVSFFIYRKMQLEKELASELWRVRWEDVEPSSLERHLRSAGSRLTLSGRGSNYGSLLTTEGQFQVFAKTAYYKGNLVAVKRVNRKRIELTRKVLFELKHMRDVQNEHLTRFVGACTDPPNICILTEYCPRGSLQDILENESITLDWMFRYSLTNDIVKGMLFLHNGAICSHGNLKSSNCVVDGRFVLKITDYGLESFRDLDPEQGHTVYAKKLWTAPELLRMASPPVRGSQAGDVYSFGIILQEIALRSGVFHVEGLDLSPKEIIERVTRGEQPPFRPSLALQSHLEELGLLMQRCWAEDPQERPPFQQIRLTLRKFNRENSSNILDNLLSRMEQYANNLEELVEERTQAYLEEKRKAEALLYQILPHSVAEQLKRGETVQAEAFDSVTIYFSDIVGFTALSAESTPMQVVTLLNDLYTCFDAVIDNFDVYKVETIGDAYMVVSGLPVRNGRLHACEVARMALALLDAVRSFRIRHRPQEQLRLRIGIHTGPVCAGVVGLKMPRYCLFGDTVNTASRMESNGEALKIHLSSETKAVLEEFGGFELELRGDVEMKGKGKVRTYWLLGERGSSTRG
Experimental: (§1) HEK 293 cells were stably transfected to express either NPR-A (GC-A) or NPR-B (GC-B) using Lipofectamine (Invitrogen, Grand Island, N.Y.). Transfected cells were maintained in Dulbecco's modified Eagle's medium supplemented with 10% fetal bovine serum, 100 U/mL penicillin, 100 U/mL streptomycin, and 250 μg/mL G418. The reagents were obtained from Invitrogen (Grand Island, N.Y.).
(§2) The following was performed to carry out cell stimulation and cGMP assays. Cells were plated in 6-well plates and treated as described elsewhere (Tsuruda et al., Circulation Research, 91:1127-1134 (2002)). Briefly, cells were incubated in Hank's balanced salt solution (Invitrogen, Carlsbad, Calif.) containing 20 mmol/L N-[2-hydroxyethyl]piperazine-N′[2-ethanesulfonic acid], 0.1% bovine serum albumin, and 0.5 mmol/L 3-isobutyl-1-methylzanthine (Sigma, St. Louis, Mo.). Treated cells received 10^−10 M, 10^−8M, or 10^−6 M of either BNP-Ang1-7 or Ang1-7BNP for 10 minutes. Cells were lysed in 300 μL 6% TCA and sonicated for 10 minutes. The samples were ether extracted four times in 4 volumes of ether, dried, and reconstituted in 500 μL cGMP assay buffer. The samples were assayed using a competitive RIA cGMP kit (Perkin-Elmer, Boston, Mass.) as described elsewhere (Steiner et al., J. Biol. Chem., 247:1106-1113 (1972)). Samples were corrected for dilution factors and protein concentration, and values were expressed as pmol cGMP/well. There was no cross-reactivity with ANP, BNP, CNP, and Endothelin-1, and less than 0.001 percent cross-reactivity with cAMP, GMP, GDP, ATP, and GTP.

NPR-B (GC-B) = biological target: T2, NPR-B (GC-B) (Homo sapiens, UniProt P20594); experiment: cGMP production in HEK 293 cells stably transfected to express NPR-B (GC-B); conditions: NPR-B+ HEK 293 cells; 10^-10 M, 10^-8 M or 10^-6 M for 10 minutes
T2 construct: expressed in transfected cells; host or cells: HEK 293
T2 sequence (P20594 23-1047): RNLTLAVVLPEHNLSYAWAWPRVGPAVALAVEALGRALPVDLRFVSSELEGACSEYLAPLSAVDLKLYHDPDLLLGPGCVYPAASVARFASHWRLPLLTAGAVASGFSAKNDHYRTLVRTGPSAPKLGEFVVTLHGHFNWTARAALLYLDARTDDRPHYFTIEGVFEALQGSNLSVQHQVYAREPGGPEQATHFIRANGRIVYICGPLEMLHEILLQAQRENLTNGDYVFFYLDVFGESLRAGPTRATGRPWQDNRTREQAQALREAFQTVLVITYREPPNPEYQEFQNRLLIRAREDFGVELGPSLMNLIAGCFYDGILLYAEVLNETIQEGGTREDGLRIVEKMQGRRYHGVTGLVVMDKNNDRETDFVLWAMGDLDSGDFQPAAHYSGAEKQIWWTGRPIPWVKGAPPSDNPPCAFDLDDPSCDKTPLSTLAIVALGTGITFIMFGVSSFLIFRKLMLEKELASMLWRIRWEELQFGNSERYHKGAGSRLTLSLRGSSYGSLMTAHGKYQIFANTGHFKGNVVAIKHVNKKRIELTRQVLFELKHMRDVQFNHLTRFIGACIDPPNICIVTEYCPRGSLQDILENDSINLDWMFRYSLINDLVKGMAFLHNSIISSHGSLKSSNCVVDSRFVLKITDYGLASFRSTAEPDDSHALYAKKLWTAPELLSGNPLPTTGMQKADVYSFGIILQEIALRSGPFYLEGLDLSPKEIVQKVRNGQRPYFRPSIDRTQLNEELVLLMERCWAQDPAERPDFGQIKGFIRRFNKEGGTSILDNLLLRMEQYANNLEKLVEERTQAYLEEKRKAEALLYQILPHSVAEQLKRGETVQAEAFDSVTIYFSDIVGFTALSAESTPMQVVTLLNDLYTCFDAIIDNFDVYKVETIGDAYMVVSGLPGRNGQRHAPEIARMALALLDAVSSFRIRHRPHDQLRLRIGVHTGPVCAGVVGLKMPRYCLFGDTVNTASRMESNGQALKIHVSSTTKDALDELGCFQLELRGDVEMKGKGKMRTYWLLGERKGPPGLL
Experimental: as §1, §2

| Compound | cGMP production [1] | cGMP production (NPR-A (GC-A)) | cGMP production (NPR-B (GC-B)) |
| --- | --- | --- | --- |
| cANG: chimeric polypeptide containing an N-terminus and ring structure of CNP and a C-terminal Ang-(1-7) (GLSKGCFGLKLDRIGSMSGLGCDRVYIHP; not fully specified (bridges); cysteine pairing not given here) | resulted in cGMP production | – | – |
| angiotensin-(1-7) [Ang1-7] | – | did not induce cGMP production | did not induce cGMP production |
| B-type natriuretic peptide [BNP] | resulted in cGMP production | induced cGMP production | Minimal cGMP production |
| CC[C@H](C)[C@@H]1NC(=O)[C@H](CCCNC(=N)N)NC(=O)[C@H](CC(=O)O)NC(=O)[C@H](CCSC)NC(=O)[C@H](CCCNC(=N)N)NC(=O)CNC(=O)CNC(=O)[C@H](Cc2ccccc2)NC(=O)[C@@H](NC(=O)[C@H](CO)NC(=O)[C@H](CO)NC(=O)[C@H](CCCNC(=N)N)NC(=O)[C@H](CCCNC(=N)N)NC(=O)[C@H](CC(C)C)NC(=O)[C@@H](N)CO)CSSC[C@@H](C(=O)N[C@@H](CC(N)=O)C(=O)N[C@@H](CO)C(=O)N[C@@H](Cc2ccccc2)C(=O)N[C@@H](CCCNC(=N)N)C(=O)N[C@@H](Cc2ccc(O)cc2)C(=O)O)NC(=O)CNC(=O)[C@H](CC(C)C)NC(=O)CNC(=O)[C@H](CO)NC(=O)[C@H](CCC(N)=O)NC(=O)[C@H](C)NC(=O)CNC1=O [ANP, atrial natriuretic peptide] | resulted in cGMP production | – | – |
| C-type natriuretic peptide (GLSKGCFGLKLDRIGSMSGLGC) [CNP] | resulted in cGMP production | – | – |
| Ang1-7BNP: chimeric polypeptide containing an N-terminal Ang-(1-7) and a ring structure and C-terminus of BNP | – | induced cGMP production | Neither BNP-Ang1-7 nor Ang1-7BNP induced cGMP production |
| BNP-Ang1-7: chimeric polypeptide containing an N-terminus and ring structure of BNP and a C-terminal Ang-(1-7) (SPKMVQGSGCFGRKMDRISSSSGLGCDRVYIHP; not fully specified (bridges); cysteine pairing not given here) | – | induced cGMP production | Neither BNP-Ang1-7 nor Ang1-7BNP induced cGMP production |
